Reference: patent publication US20230071609A1 (Genentech, published 2023)

Target: T1, endogenous human APOL1 (wild-type immortalized podocytes; also JHH-1 cells, kidney and liver tissue) (human, UniProt O14791 28-398)
T1 construct: whole, on cells; Cell or tissue and permeabilization are told under assay; also called podocyte APOL1; endogenous APOL1
T1 sequence (looked up): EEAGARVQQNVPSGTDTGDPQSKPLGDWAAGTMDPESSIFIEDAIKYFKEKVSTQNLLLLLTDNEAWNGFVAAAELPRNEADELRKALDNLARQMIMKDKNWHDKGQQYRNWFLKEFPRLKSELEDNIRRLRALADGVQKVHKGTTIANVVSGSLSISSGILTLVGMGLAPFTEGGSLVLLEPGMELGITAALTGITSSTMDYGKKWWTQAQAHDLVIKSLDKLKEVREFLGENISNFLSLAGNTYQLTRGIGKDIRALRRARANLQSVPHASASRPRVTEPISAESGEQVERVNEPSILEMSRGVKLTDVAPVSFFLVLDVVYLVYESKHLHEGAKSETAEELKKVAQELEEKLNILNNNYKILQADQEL
Assay: flow cytometry, live WT and iAPOL1-G0 podocytes
Description: Cells were harvested with 5 mM EDTA in PBS, washed once with growth media and twice with PBS. Approximately 0.5×10⁶/m1 of cells resuspended in PBS were incubated with anti-APOL1 antibodies for 1 h on ice. Following two PBS washes, 2 μg/ml of Alexa488 anti-mouse or anti-rabbit (Invitrogen A11029 and A21206, respectively) was used for 1 h on ice for detection. Cells were washed twice in PBS and resuspended in PBS with 1 μg/ml propidium iodide. Signals were read in a FACSCalibur3 (Becton Dickinson), with the exception of FIG. 8A and FIG. 14, which used a FACSCelesta, and data was analyzed using FlowJo v8.4.5. Mean fluorescence intensities were plotted in PRISM v7 after subtraction of secondary antibody alone background. For low pH experiments, cells were incubated with the antibodies in the presence of PBS pH 7.0 or PBS pH 5.5 for an hour on ice and detected with secondary antibodies at neutral pH.
More importantly, there were also differential APOL1 accessibilities between serum APOL1 and kidney disease-relevant podocytes (FIG. 18B). Some antibodies bound surface APOL1 in WT and iAPOL1 podocytes (FIG. 6A, 6B), but not circulating APOL1 (as judged by lack of trypanolytic blockade, FIG. 6C) and vice versa. […] Conversely, 3.3B6 and 4.17A5 were among the top trypanolytic blockers, but recognized the podocyte surface relatively weakly. […]

B1: antibody 3.3B6 (antibody, V domains shown)
VH: QVQLQQSGAELARPGASVKLSCKASGYTFTSHWMQWLKQRPGQGLEWIGAIYPGDGDTKFTQKFKDKATLTADKSSTTAYMQLSSLASEDSAVYYCARENLYGYYFDYWGQGTTLTVSS
VL: QAVVTQESALTTSPGETVTLTCRSSTGAVTSGNFANWVQEKPDHLFTGLIGGADNRAPGVPARFSGSLIGDKAALIITGAQTEDEAIYFCALWYSDHWVFGGGTKLTVLG
notes: Mouse mAb, cloned as murine IgG2a LALAPG
- binding result: binds
